Test results reported in publication PMC6936867.

Assays:
FcγRIIIa F158 = FcγRIIIa F158 (UniProt P08637); assay: SPR
FcγRIIIa V158 = assay: SPR
FcγRIIb = FcγRIIb (UniProt P31994); assay: SPR
FcγRIIa R131 = FcγRIIa R131 (UniProt P12318); assay: SPR
FcγRIIa H131 = FcγRIIa H131 (UniProt P12318); assay: SPR
[1] = target: CAP256-VRC26.25 IgG3*17 (human); assay: SPR; antibodies printed at 200 nM in 25 mM sodium acetate pH 5.0 on an NHS/EDC-activated carboxymethyldextran gold prism (CFM, MX96 array reader); FcγRs injected in PBS + 0.05% Tween 20, 8-part 3-fold dilution series generally starting between 10 and 50 μM, 5 min association, 5 min dissociation; kinetic global analysis for KD

Chain of FcγRIIIa V158 (P08637 17-208 F176V): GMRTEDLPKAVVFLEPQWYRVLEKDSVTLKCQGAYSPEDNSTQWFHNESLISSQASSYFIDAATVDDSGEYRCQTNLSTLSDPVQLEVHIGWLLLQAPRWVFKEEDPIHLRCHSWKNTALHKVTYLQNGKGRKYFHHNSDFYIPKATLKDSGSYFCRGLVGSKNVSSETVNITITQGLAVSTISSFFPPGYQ
Chain of FcγRIIa H131 (P12318 34-317): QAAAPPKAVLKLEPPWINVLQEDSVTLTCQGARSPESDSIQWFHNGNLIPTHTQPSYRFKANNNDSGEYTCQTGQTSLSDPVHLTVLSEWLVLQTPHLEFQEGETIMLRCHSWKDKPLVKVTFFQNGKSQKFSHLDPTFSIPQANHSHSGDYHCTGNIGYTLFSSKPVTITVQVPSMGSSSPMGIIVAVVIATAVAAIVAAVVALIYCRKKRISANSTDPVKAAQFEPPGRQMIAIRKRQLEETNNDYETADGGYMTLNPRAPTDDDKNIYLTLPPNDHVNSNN
Chain of FcγRIIa R131 (P12318 34-217 H167R): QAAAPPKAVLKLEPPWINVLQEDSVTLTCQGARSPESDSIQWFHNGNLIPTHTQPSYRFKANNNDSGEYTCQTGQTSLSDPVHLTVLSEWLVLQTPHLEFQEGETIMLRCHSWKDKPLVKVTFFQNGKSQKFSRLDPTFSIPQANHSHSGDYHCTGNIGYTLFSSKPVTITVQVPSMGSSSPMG
Chain of FcγRIIIa F158 (P08637 17-254): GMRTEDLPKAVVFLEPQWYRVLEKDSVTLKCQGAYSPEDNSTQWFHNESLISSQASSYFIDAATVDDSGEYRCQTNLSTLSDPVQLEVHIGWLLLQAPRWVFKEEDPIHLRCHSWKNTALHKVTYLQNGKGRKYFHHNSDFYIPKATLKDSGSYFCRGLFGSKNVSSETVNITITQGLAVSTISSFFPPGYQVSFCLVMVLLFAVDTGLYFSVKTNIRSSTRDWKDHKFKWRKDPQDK
Chain of FcγRIIb (P31994 43-310): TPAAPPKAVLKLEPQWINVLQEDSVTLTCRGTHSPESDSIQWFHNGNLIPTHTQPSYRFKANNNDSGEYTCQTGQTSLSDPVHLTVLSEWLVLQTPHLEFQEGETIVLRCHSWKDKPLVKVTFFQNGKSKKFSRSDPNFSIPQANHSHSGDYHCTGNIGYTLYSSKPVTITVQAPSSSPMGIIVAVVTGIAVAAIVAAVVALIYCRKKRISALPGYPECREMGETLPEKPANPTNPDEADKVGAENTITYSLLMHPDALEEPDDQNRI

| fold less binding than other variants [1] | Substance | Kd (FcγRIIIa F158) | Kd (FcγRIIIa V158) | Kd (FcγRIIb) | Kd (FcγRIIa R131) | Kd (FcγRIIa H131) |
| --- | --- | --- | --- | --- | --- | --- |
| – | CAP256-VRC26.25 IgG1 | 3.9 µM | 2.4 µM | 6.6 µM | 5.7 µM | 5.6 µM |
| – | CAP256-VRC26.25 IgG3*01 | 3.1 µM | 2.2 µM | 4.6 µM | 3.9 µM | 1 µM |
| – | CAP256-VRC26.25 IgG3*17 | 4.9 µM | 4.1 µM | 4.5 µM | 2 µM | 1 µM |
| – | CAP256-VRC26.29 IgG1 (from UniProt P01857) | 4.5 µM | 3.6 µM | 5.4 µM | 5.2 µM | 5.5 µM |
| – | CAP256-VRC26.29 IgG3*01 (from UniProt P01860) | 4.4 µM | 2.6 µM | – | – | 1.3 µM |
| – | CAP256-VRC26.29 IgG3*01m (from UniProt P01860) | 3.9 µM | 2.7 µM | – | – | 1.4 µM |
| – | CAP256-VRC26.29 IgG3*17 (from UniProt P01860) | 4.5 µM | 2.4 µM | 4.1 µM | 2.9 µM | 1.3 µM |
| 1.7 to 1.9 fold | FcγRIIIa | – | – | – | – | – |
